Test [1] addresses Aβ42-CFP (human Aβ(1-42) fused to CFP) (human) (UniProt P05067). The test can be described thus: FRET or BRET; acceptor photobleaching FRET (AB FRET) by confocal microscopy (Leica TCS SP5) of yeast cells co-expressing a CFP fusion (donor) and a YFP fusion (acceptor); acceptor bleached at 514 nm, 100% intensity; cells washed, air-dried on polylysine slides and mounted in …; three independent transformants, at least 100 cells each. On the technique in general: In BRET a luciferase serves as donor, and the signal depends on an acceptor being close.

The target in test [2] is IAPP-CFP (human IAPP fused in frame with cyan fluorescent protein) (human). The description is as above.
Chain of IAPP-CFP (human IAPP fused in frame with cyan fluorescent protein) (human) (P10997 8-37): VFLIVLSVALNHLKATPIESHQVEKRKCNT

In article PMC10531723 one finds FRET efficiency data, which are given here for one substance.

“IAPP-YFP (human IAPP fused in frame with yellow fluorescent protein) (domain or fragment)”: the FRET efficiency in test [1] is 20%; in test [2] it was 31%.
